From US9453050B2, “Compositions for treating glioma” (GLIA SP Z.O.O., priority 2011, dated 2016)

Assays:
[1] = system: intracranial GL261 gliomas; assay: Survival of mice with intracranial gliomas (Kaplan-Meier); type: in vivo, mouse
Experimental: Mice were randomly assigned to receive intracranial implantation of shNeg or shRNA glioma cells and observed until becoming moribund. EGFP-GL261 glioma cells, shGM-CSF glioma cells or shNeg glioma cells were inoculated in a right striatum using a syringe with a 26-gauge needle in a stereotactic apparatus according to the coordinates (+1.5 mm AP, −1.5 mL). Mice were resuscitated using i.p. administration of atipamazole and treated with the Tolfedine 4% (4 mg/kg s.c.) analgesic. Kaplan-Meier analysis of mice implanted with shGM-CSF and shNeg glioma cells (n=10 mice per group) was performed.
Two mice having shGM-CSF-gliomas were alive 63 days post implantation.

EGFP-GL261 glioma cells [2] = assay: BrdU incorporation of glioma cells expressing shGM-CSF; type: cell-based, mouse; details: FIG. 10C
EGFP-GL261 glioma = assay: Intracranial EGFP-GL261 glioma implantation in C57BL/6 mice; type: in vivo, mouse
Experimental: Adult C57BL/6 mice (12-16 wk) were anesthetized with an i.p. injection of ketamine (75 mg/kg) and medetomidine (1 mg/kg). EGFP-GL261 glioma cells, shGM-CSF glioma cells or shNeg glioma cells (8×10^4 cells in 1 μl of DMEM) were inoculated in a right striatum using 1-μl syringe with a 26-gauge needle in a stereotactic apparatus according to the coordinates (+1.5 mm AP, −1.5 mL). Mice were resuscitated using i.p. administration of atipamazole and […] Tolfedine 4% (4 mg/kg s.c.). At day 15th after glioma implantation, the animals were anesthetized, sacrificed and perfused with PBS or PBS and 4% paraformaldehyde in PBS. The brains were removed and minced or post-fixed for 24 h in the same fixative solution and placed in 30% sucrose in PBS at 4° C. Next, brains were frozen with dry CO2 and serial 20-μm-thick coronal sections were collected using a cryostat. Images were acquired using a Leica DM4000B microscope.
Tumor areas in coronal sections were measured using Image Pro-Plus software in an every second brain slice and tumor volumes were calculated according to the Cavalieri principle.
Staining with anti-Iba1 and anti-vWF antibodies was performed to detect microglia/macrophages and blood vessels, respectively. Sections were incubated with 0.5% H2O2 in PBS for 30 min at RT, permeabilized and blocked with 10% donkey serum with the addition of 0.3% Triton X-100 in PBS, and then incubated with the primary antibodies: anti-Iba-1 (rabbit, polyclonal, WAKO, 1:1000) or anti-vWF (rabbit, polyclonal, Abcam, 1:1000) for 24 h at 4° C. and with the secondary goat anti-rabbit biotinylated IgG for 2 hr at RT. The primary and secondary antibodies were diluted in PBS containing 0.1% Triton X-100 and 3% donkey serum. The sections were exposed to extravidin-peroxidase complex (1:200) for 1 h at RT and peroxidase activity was visualized with 0.02% 3.3′-diaminobenzidine (DAB) and 0.01% H2O2 in Tris buffer (pH 7.6). Sections were dehydrated and mounted with Histofluid (Sigma, Germany). […]

EGFP-GL261 glioma cells [3] = assay: MTT metabolism test of glioma cells expressing shGM-CSF; type: cell-based, mouse; details: FIG. 10D
From the text: To check if glioma-derived GM-CSF is responsible for recruitment of microglia/macrophages to gliomas and for tumor growth, EGFP-GL261 glioma cells stably depleted of GM-CSF were generated by over-expressing plasmids encoding specific shRNA. Silencing of GM-CSF expression at the mRNA level (FIG. 10A) and at the protein level (FIG. 10B) in two independently derived clones was confirmed by qPCR and ELISA. Two clones derived in parallel and expressing negative shRNA served as controls.

[4] = system: EGFP-GL261 glioma cells in murine brain slices; assay: Tumor invasion in organotypical brain slice cultures; type: cell-based, mouse; details: 5d after injection; FIGS. 12A and B
Experimental: The organotypical brain slice cultures were obtained from 16-day-old male C57/BL6 mice (animal breeding facility, Schonwalde, Germany). The brain slices cut into 250 μm sections were transferred to a Transwell insert in a 6-well plate (Becton Dickinson, Lincoln Park, N.J., USA) and were incubated in 1 ml of DMEM (Gibco, Gaithersburg, Md., USA) supplemented with 10% FCS (Atlanta Biological, USA), 0.2 mM glutamine and antibiotics. After overnight equilibration, medium was exchanged for the cultivation medium containing 25% FCS, 50 mM sodium bicarbonate, 2% glutamine, 25% Hanks balanced salt solution, 1 μg/ml insulin (all from Gibco, Gaithersburg, Md., USA), 2.46 mg/ml glucose (Braun Melsungen AG, Germany), 0.8 μg/ml vitamin C (Sigma-Aldrich, Germany), 5 mM Tris and antibiotics. Slices were injected with 10,000 GFP-GL261 glioblastoma cells (in 0.5 μl) using a syringe mounted to a micromanipulator. […]
To investigate whether GM-CSF expression influences microglia dependent invasion or directly affects glioma invasion, an organotypic brain slice culture was used as a model. Control or GM-CSF-depleted EGFP-GL261 glioma cells were injected into murine brain slices and resulting tumor size was quantified 5d after injection by measuring the projected fluorescent area covered by the EGFP-glioma cells within the slice. […]

C6 glioma = C6 glioma implantation into striatum of Wistar rats; type: in vivo, rat; details: 15 days after implantation, FIG. 19C
Experimental: RNA was isolated from rat C6 glioma clones stably expressing shRNA against osteopontin cells and cDNA was synthesized using reverse-transcriptase and random hexamer primers. Knock down efficiency of osteopontin was confirmed by Real Time PCR (FIG. 19A). C6 glioma cells expressing control shRNA (shNeg) or glioma cells depleted of osteopontin (shSPP1) (5×10^4 cells/2.5 μl of DMEM) were implanted into the right striatum of 8-10 weeks old Wistar rats. 15 days after glioma implantation, the animals were sacrificed and intracardially perfused with 4% paraformaldehyde. The brains were removed, frozen with dry CO^2 and serial 20- or 12-μm-thick coronal sections were collected using a cryostat. To quantify the tumor size, 20 μm-thick sections were stained with toluidine blue, images were acquired using a Leica DM4000B microscope. Tumor areas were measured using ImageJ software in an every fourth brain slice and tumor volumes were calculated according to the Cavalieri principle (Gabrusiewicz et al, 2011). […] Moreover, gliomas from implanted C6-Neg were of similar sizes as WT C6 cells (n=5, 28.33±14.53 mm^3). […] Results are expressed as the means±s.d. from 2 independent experiments (U-Mann-Whitney test).

[5] = system: osteopontin (spp1) mRNA in C6 glioma cells; assay: qPCR of osteopontin silencing in stable C6 glioma clones; type: cell-based, rat; details: stable C6 glioma cell lines; FIGS. 7A and C
Experimental: Forward and reverse oligonucleotides were incubated in 0.1 M NaCl for 3 min at 94° C., followed by slow cooling to 37° C. for 1 h. The annealed DNA was ligated with pSilencer 2.0-U6 (Ambion, Germany) at BamHI and HindIII sites. After transformation into E. coli, plasmids were amplified, isolated and the sequences were verified by sequencing. The pSilencer-spp1, pSilencer-mfg8 pSilencer-GM-CSF and pSilencer 2.0-U6 Negative Control (Ambion) vectors were purified with Qiagen Plasmid Maxi Kit and 1.6 μg of each DNA was transfected into cells using 2 μl Lipofectamine-2000 (Invitrogen, UK). One day after transfection, hygromycin B (200 μg/ml) was added. Resistant clones were picked after 2 weeks and analysed for expression of appropriate mRNA by qRT-PCR.
RNA was isolated with RNeasy Mini Kit (Qiagen). First-strand cDNA was synthesized from 2 μg of total RNA (DNase-treated) in a 20 μl reverse transcriptase reaction mixture. […] The expression of Osteopontin, and lactadherin in C6 rat glioma cells and primary astrocytes was evaluated using qPCR. The expression of GM-CSF in GL261 glioma cells and primary astrocytes was evaluated using qPCR. […]
Reaction volume (20 μl) consisted of cDNA equivalent to 50 ng RNA, 1×SYBR Green PCR master mix (Applied Biosystems) and 0.9 μM of each primer. […] Relative quantification of gene expression was determined using the comparative CT method. […]

C6 glioma cells = assay: Matrigel matrix invasion of C6 glioma cells in presence of microglia; type: cell-based, rat; details: laser scanning cytometry; FIG. 7E
Experimental: The invasion assay was performed as described (Wesolowska et al. 2008, Kwiatkowska et al. 2011). Briefly, 24-well tissue culture inserts (12 μm pore size Transwell, Corning, N.Y., USA) were coated with the Growth Factor Reduced Matrigel™ Matrix (BD Biosciences, San Diego. Calif., USA). 100 μl of the Matrigel™ Matrix (1 mg/ml) diluted in distilled water, was dried under sterile conditions (37° C.) for 5-6 hours and reconstituted for 30 minutes in 200 μl of culture medium. C6 glioma cells (1.5×10^4/insert) were seeded on Matrigel-coated membrane in the serum-reduced medium (2% FBS) and exposed to microglia or left untreated. After 48 h cells were fixed and cell nuclei stained with DAPI. The membranes from Transwell® inserts were cut out and the total number of cells that migrated through the Matrigel was determined using Laser Scanning Cytometry (LSC, CompuCyte). All experiments were performed in triplicate. The data from three independent experiments were pooled and expressed as the average number of cells±S.D.
(§1) To investigate the role of identified proteins in GCM-induced activation of microglia cells, stable C6 glioma cell lines expressing shRNAs specific to osteopontin (shSPP1), or a control, negative shRNA (shNeg) were generated. Silencing efficiency was approximately 98.5% (FIGS. 7A and C). […]

microglia cells = assay: qPCR of GCM-induced genes in microglia exposed to GCM of shRNA-expressing C6 glioma cells; type: cell-based, rat; details: FIG. 7D
Experimental: Total RNA (2 μg) isolated from microglia cultures untreated or treated for 6 h with LPS or G-CM was used as a template to generate cDNA. As endogenous control 18S (Hs99999901_s1) rRNA was applied. Gene expression quantification was performed using the Applied Biosystem TaqMan® The real time amplifications were performed in duplicates in a 20 μl reaction volume containing 2×SYBR PCR MasterMix and a set of primers designed using PRIMER EXPRESS software for the following genes: iNOS, COX-2, II1beta, TNF alpha, MMP-2, MMP-9, MMP-14, Arg1, Id1 and c-Myc. The amount of target mRNA was first normalized to the 18S RNA expression level and then to a control. Data were analysed by the Relative Quantification (^ΔΔCt) method using 7500 System SDS software (Applied Biosystems). The expression of each product was normalized to 18S rRNA and is shown as the ratio of the target gene to 18S gene expression, calculated by 2^−ΔΔCt.
as §1, with “C). Silencing of […] inhibited GCM-induced expression c-Myc and smad7 in microglia cells (FIG. 7B).” for “C).”

| Molecule | mice alive 63 days post implantation ([1]; 63 days post implantation) | survival of mice ([1]; n=10 mice per group, FIG. 16) | proliferation of glioma cells (BrdU incorporation) (EGFP-GL261 glioma cells [2]) | number of microglia/macrophages (anti-Iba-1 staining) (EGFP-GL261 glioma; vs control gliomas (shNeg), FIGS. 11A and B) | formation of tumor vessels (anti-vWF staining) (EGFP-GL261 glioma; vs controls, FIG. 11C) | reduction of tumor size (EGFP-GL261 glioma; vs shNeg glioma cells, day 15, FIG. 11D-E) | survival of glioma cells (MTT metabolism) (EGFP-GL261 glioma cells [3]) | average tumor size smaller than controls (fluorescent area) [4] | tumor volume (mean value) (C6 glioma) | reduction in tumor volumes (C6 glioma; vs C6-Neg) | Silencing efficiency [5] | microglia-dependent invasion of glioma cells through Matrigel (C6 glioma cells) | GCM-induced expression arg-1 and smad7 in microglia cells (microglia cells) |
| --- | --- | --- | --- | --- | --- | --- | --- | --- | --- | --- | --- | --- | --- |
| shGM-CSF: shRNA to mouse GM-CSF, oligonucleotides SEQ ID NO: 23 and 24, stably expressed in EGFP-GL261 glioma cells (nucleic acid) chain 1: GATCCCGGAAACGGACTGTGAAACATTCAAGAGATGTTTCACAGTCCGTTTCCGGTTTTTTGGAAA chain 2: AGCTTTTCCAAAAAACCGGAAACGGACTGTGAAACATCTCTTGAATGTTTCACAGTCCGTTTCCGG | Two | significant survival benefit | did not affect | reduced number | reduced formation | 65% | did not affect | 58% |  |  |  |  |  |
| shSPP1: shRNA specific to rat osteopontin, oligonucleotides SEQ ID NO: 21 and 22, stably expressed in C6 glioma cells (nucleic acid, the letters are possibly those of the target site) chain 1: GATCCAGCTAGTCCTAGACCCTAATTCAAGAGATTAGGGTCTAGGACTAGCTTGTTTTTTGGAAA chain 2: AGCTTTTCCAAAAAACAAGCTAGTCCTAGACCCTAATCTCTTGAATTAGGGTCTAGGACTAGCTG |  |  |  |  |  |  |  |  | 6.03 mm^3 | 88% | approximately 98.5% | strongly reduces | inhibited |
